Assay results published in the supplement of paper PMC10567573.

B1: TMEM106C (parent)
chain: FTGRDSITCLTCQGTGYIPTEQVN

Variants of: B1
Test: protein stability index of a GFP-peptide fusion (GPS, HEK-293T) (PSI 1-6); higher = more stable
Details: c terminus: a fixed tail appended
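Also: lentivirally expressed fusions sorted by FACS into six bins by GFP to DsRed ratio, PSI derived from sequencing read proportions per bin multiplied by bin number.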

Protein stability index: each site, then its substitutions
D5: L 2.66, Y 3.35, C 3.35, P 2.12, W 3.14
P19: M 2.15, I 1.84, Y 1.78, L 2.29, T 2.21, H 2.35, E 2.02, Q 2.05, G 1.63, C 2.29, N 1.96
T2: M 2.95, R 4.04, D 4.1, P 2.82, Q 2.91, K 4.3, W 2.31, I 1.97, E 4.48
Y17: P 1.91, V 2.55, W 3.54, T 2.16, F 1.64, L 1.84
F1: D 4.88, T 4.76, M 4.77, A 4.7, W 4.06, Q 4.65, G 4.15
T8: S 2.4, L 2, D 2.37, Q 2.37, N 1.92, E 1.84, F 3.56, C 2.11, A 2.91, H 2.28, Y 2.15
G14: A 1.5, M 2.91, H 1.88, D 1.56, T 2.33, N 1.74
V23: W 1.87, K 2.3, Y 1.79, C 2.25, I 1.47, E 1.79, M 1.88
R4: K 2.12, H 1.98, M 2.33, N 2.8, G 1.74, Y 1.65, Q 2.46, V 1.7, C 2.32
C9: D 3.16, R 1.52, Y 2.75, I 3.25, T 1.82, N 1.94
L10: V 2.2, N 2.77, E 3.8, S 2.85, C 1.99, R 2.36
G16: V 1.85, Y 2.08, K 1.56, T 2.04, M 2.8, N 1.49, P 3.09
T11: N 1.86, M 1.77, W 2.97, R 1.97
E21: K 1.65, Y 2.67, R 2.03, I 2.16, W 1.84, P 2.2
T20: Y 2.17, L 2.19, A 2.11, Q 2.65, K 1.92, M 1.93, E 1.66
Q22: D 1.86, K 1.85, F 1.85, C 2, G 2.84
I7: N 2.15, S 2.39, E 2.89, Y 2.68, L 2.07, R 2.15, A 2.22, C 1.73, W 3.32, P 2.23
N24: D 2.21, I 1.44, T 2, Q 1.96, Y 2.11, M 1.84
G3: M 2.81, W 1.48, A 2.79, Y 2.45, L 3.45, C 1.89, Q 2.09, I 2.33, S 1.46, T 2.04
S6: M 1.79, A 2.27, T 2.43
I18: C 1.91, M 2.78, T 3.01, A 1.93, D 1.96, R 2.57, K 1.82
C12: D 2.41, F 2.34, R 1.85, V 1.83, I 2.4, A 2.17, G 2.04, P 1.68
T15: M 2.59, S 1.56, R 2.26, P 2.1, E 1.64, Q 1.53, W 2.34
Q13: R 2.18, G 2.28, M 1.75, H 2.09
